According to patent US20160272683A1 (Novo Nordisk, published 2016):
Numbered stars: 1 amine (or outer) side, 2 acyl side, 3 side chain; on linkers, the order of the positions; unused ones are H or OH. * marks the point of attachment. C20 diacid = O=C(O)CCCCCCCCCCCCCCCCCCC(=O)*; γGlu = O=C(O)[C@H](CCC(=O)[*:2])N[*:1]

B1: [N-terminal(C20 diacid-gGlu), des1, 23Y, 30S, 31G, 34G, C-terminal(-)]mimylin (peptide)
peptide: {C20 diacid-γGlu}-ASELSTAALGRLSAELHELATYPRTETGSGSPG-OH
SMILES: CC(C)C[C@H](NC(=O)[C@H](C)NC(=O)[C@H](C)NC(=O)[C@@H](NC(=O)[C@H](CO)NC(=O)[C@H](CC(C)C)NC(=O)[C@H](CCC(=O)O)NC(=O)[C@H](CO)NC(=O)[C@H](C)NC(=O)CC[C@H](NC(=O)CCCCCCCCCCCCCCCCCCC(=O)O)C(=O)O)[C@@H](C)O)C(=O)NCC(=O)N[C@@H](CCCNC(=N)N)C(=O)N[C@@H](CC(C)C)C(=O)N[C@@H](CO)C(=O)N[C@@H](C)C(=O)N[C@@H](CCC(=O)O)C(=O)N[C@@H](CC(C)C)C(=O)N[C@@H](Cc1c[nH]cn1)C(=O)N[C@@H](CCC(=O)O)C(=O)N[C@@H](CC(C)C)C(=O)N[C@@H](C)C(=O)N[C@H](C(=O)N[C@@H](Cc1ccc(O)cc1)C(=O)N1CCC[C@H]1C(=O)N[C@@H](CCCNC(=N)N)C(=O)N[C@H](C(=O)N[C@@H](CCC(=O)O)C(=O)N[C@H](C(=O)NCC(=O)N[C@@H](CO)C(=O)NCC(=O)N[C@@H](CO)C(=O)N1CCC[C@H]1C(=O)NCC(=O)O)[C@@H](C)O)[C@@H](C)O)[C@@H](C)O
B2: [N-terminal(C20 diacid-gGlu), des1, 9T, 21S, 23Y, 30S, 31G]mimylin (peptide)
peptide: {C20 diacid-γGlu}-ASELSTATLGRLSAELHELSTYPRTETGSGSP-NH2
SMILES: CC(C)C[C@H](NC(=O)[C@H](CCCNC(=N)N)NC(=O)CNC(=O)[C@H](CC(C)C)NC(=O)[C@@H](NC(=O)[C@H](C)NC(=O)[C@@H](NC(=O)[C@H](CO)NC(=O)[C@H](CC(C)C)NC(=O)[C@H](CCC(=O)O)NC(=O)[C@H](CO)NC(=O)[C@H](C)NC(=O)CC[C@H](NC(=O)CCCCCCCCCCCCCCCCCCC(=O)O)C(=O)O)[C@@H](C)O)[C@@H](C)O)C(=O)N[C@@H](CO)C(=O)N[C@@H](C)C(=O)N[C@@H](CCC(=O)O)C(=O)N[C@@H](CC(C)C)C(=O)N[C@@H](Cc1c[nH]cn1)C(=O)N[C@@H](CCC(=O)O)C(=O)N[C@@H](CC(C)C)C(=O)N[C@@H](CO)C(=O)N[C@H](C(=O)N[C@@H](Cc1ccc(O)cc1)C(=O)N1CCC[C@H]1C(=O)N[C@@H](CCCNC(=N)N)C(=O)N[C@H](C(=O)N[C@@H](CCC(=O)O)C(=O)N[C@H](C(=O)NCC(=O)N[C@@H](CO)C(=O)NCC(=O)N[C@@H](CO)C(=O)N1CCC[C@H]1C(N)=O)[C@@H](C)O)[C@@H](C)O)[C@@H](C)O
B3: [N-terminal(C20 diacid-gGlu), des1, 23Y, 30S, 31G, 34K, C-terminal(-)]mimylin (peptide)
peptide: {C20 diacid-γGlu}-ASELSTAALGRLSAELHELATYPRTETGSGSPK-OH
SMILES: CC(C)C[C@H](NC(=O)[C@H](C)NC(=O)[C@H](C)NC(=O)[C@@H](NC(=O)[C@H](CO)NC(=O)[C@H](CC(C)C)NC(=O)[C@H](CCC(=O)O)NC(=O)[C@H](CO)NC(=O)[C@H](C)NC(=O)CC[C@H](NC(=O)CCCCCCCCCCCCCCCCCCC(=O)O)C(=O)O)[C@@H](C)O)C(=O)NCC(=O)N[C@@H](CCCNC(=N)N)C(=O)N[C@@H](CC(C)C)C(=O)N[C@@H](CO)C(=O)N[C@@H](C)C(=O)N[C@@H](CCC(=O)O)C(=O)N[C@@H](CC(C)C)C(=O)N[C@@H](Cc1c[nH]cn1)C(=O)N[C@@H](CCC(=O)O)C(=O)N[C@@H](CC(C)C)C(=O)N[C@@H](C)C(=O)N[C@H](C(=O)N[C@@H](Cc1ccc(O)cc1)C(=O)N1CCC[C@H]1C(=O)N[C@@H](CCCNC(=N)N)C(=O)N[C@H](C(=O)N[C@@H](CCC(=O)O)C(=O)N[C@H](C(=O)NCC(=O)N[C@@H](CO)C(=O)NCC(=O)N[C@@H](CO)C(=O)N1CCC[C@H]1C(=O)N[C@@H](CCCCN)C(=O)O)[C@@H](C)O)[C@@H](C)O)[C@@H](C)O

molecular target: T1, human amylin receptor (human calcitonin receptor + human RAMP3) (human) (UniProt P30988); assay: whole-cell competition vs 125I-rat amylin (Assay Va)
T1 sequence (looked up) 1: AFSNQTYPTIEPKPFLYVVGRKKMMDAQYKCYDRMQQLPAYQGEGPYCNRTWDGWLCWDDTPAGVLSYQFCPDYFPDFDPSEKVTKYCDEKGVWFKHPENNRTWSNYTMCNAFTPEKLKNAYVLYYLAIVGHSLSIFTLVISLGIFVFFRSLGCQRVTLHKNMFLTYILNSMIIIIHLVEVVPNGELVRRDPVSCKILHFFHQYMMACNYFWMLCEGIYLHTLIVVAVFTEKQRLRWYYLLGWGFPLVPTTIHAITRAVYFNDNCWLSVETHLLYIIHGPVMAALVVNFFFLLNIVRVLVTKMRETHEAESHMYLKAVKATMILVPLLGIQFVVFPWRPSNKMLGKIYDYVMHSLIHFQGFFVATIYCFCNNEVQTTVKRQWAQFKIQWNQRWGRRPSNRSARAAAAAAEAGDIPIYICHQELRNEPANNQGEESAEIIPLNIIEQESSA
T1 sequence (looked up) 2: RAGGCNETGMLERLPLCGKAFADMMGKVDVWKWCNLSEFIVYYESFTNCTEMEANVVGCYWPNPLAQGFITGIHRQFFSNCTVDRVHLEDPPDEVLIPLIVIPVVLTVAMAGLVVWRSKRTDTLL

Row | Binder | IC50 [nM]
1 | B1 | 7.26
2 | B2 | 2.61
3 | B3 | 21
